Consider 1 molecule from patent publication US9658208B2, “Methods and G proteins for screening and identifying ligands of G protein-coupled receptors” (Fred Hutchinson Cancer Research Center, priority 2011, dated 2017).

The target in this assay is T1, sweet receptor heterodimer (T1R2/T1R3) (Mus musculus, UniProt Q925D8+Q925I4).
T1 construct: expressed in transfected cells; host or cells: HEK-293
T1 sequence (Q925I4 20-843): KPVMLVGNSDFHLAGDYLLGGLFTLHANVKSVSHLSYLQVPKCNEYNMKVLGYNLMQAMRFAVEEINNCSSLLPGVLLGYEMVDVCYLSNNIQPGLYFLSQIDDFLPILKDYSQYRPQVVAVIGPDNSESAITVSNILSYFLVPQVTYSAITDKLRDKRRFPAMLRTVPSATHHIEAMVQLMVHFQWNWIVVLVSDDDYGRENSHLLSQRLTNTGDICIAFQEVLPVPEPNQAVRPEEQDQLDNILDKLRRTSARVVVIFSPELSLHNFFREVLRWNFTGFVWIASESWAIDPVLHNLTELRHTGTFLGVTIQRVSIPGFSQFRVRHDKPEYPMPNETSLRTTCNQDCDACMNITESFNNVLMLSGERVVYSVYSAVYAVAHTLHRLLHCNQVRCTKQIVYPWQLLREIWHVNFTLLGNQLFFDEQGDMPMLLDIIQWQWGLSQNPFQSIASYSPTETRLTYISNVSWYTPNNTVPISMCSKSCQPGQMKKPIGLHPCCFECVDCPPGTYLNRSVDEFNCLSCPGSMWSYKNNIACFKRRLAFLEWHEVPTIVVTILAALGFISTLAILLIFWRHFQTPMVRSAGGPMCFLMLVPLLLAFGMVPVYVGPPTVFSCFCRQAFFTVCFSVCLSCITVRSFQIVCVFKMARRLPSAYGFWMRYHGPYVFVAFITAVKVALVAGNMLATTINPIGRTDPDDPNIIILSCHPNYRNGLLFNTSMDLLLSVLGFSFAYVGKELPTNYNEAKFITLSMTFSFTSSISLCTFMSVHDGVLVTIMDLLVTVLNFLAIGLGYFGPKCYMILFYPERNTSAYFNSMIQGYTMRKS
T1 sequence (Q925D8 21-858): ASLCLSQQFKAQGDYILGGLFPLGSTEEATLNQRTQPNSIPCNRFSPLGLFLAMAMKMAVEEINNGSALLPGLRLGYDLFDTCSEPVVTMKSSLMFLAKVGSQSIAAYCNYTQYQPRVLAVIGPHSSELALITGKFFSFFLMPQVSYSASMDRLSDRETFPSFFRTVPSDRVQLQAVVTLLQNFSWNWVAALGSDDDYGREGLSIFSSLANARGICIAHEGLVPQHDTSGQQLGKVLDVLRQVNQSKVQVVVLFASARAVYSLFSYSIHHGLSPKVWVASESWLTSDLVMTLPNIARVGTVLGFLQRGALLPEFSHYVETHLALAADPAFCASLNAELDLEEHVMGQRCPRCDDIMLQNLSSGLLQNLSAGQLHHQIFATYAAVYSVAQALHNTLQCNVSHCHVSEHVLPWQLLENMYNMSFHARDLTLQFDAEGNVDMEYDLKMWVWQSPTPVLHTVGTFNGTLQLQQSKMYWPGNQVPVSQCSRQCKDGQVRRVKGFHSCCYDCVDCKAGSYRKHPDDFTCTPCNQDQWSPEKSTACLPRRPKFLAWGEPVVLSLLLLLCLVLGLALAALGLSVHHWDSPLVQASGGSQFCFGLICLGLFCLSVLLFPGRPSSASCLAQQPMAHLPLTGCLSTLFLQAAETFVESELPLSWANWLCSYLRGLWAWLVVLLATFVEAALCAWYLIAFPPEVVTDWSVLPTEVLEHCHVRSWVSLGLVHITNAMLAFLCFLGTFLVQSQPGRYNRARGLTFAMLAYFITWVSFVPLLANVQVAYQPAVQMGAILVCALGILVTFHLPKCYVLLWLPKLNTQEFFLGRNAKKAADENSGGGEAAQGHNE
Put plainly: CRE-SEAP reporter gene assay, coupling with sweet receptor. The class given is cell-based. As to conditions: HEK-293 cells cotransfected with T1R2 and T1R3; 5 mM saccharin. The text has this:
The GPCRs examined were those that couple with Gαi/Gαo subunits (serotonin 1b, neuropeptide Y1, leukotriene B4, and dopamine D4), Gαq (GNRH, UDP, and calcium-sensing receptors), and the orphan mammalian sweet taste receptor complex (T1R2 and T1R3) with unknown coupling preference. The Gαs-based chimeric G proteins examined in this example were Gαs-Gαi-5, Gαs-Gαt-13 (SEQ ID NO: 3), Gαs-Gαo-13 (SEQ ID NO: 4), Gαs-Gαi-13 (SEQ ID NO: 5), Gαs-Gαz-6 (SEQ ID NO: 18), Gαs-Gα15-13 (SEQ ID NO: 7), Gαs-Gαk-5 (SEQ ID NO: 2), and Gαs-Gαq-13 (SEQ ID NO: 8). The chimeric G protein constructs were prepared as described herein. For the coupling assay, HEK-293 cells were cotransfected with each of the Gαs-based chimeric G protein constructs of interest together with the CRE-SEAP reporter gene construct and a cDNA encoding the GPCR to be tested. The transfected cells were cultured in the presence or absence of a GPCR ligand and then assayed for SEAP activity.
Also tested was whether the chimeric G proteins disclosed herein can be used to detect the activation of GPCRs whose G protein coupling preference is unknown, as is the case with orphan GPCRs. […]
Following transfection, the cells were maintained for 48 hours in 200 ul serum free media containing GPCR ligand. […] Fluorescence was then measured using a CytoFluor 4000 multi well plate reader (Applied Biosystems).
In general terms: A reporter such as luciferase makes a cellular process visible.

B1: Gαs-Gαt-13: Gαs-based chimeric G protein, final 13 C-terminal amino acids substituted with those of Gαt (protein)
chain: MGCLGNSKTEDQRNEEKAQREANKKIEKQLQKDKQVYRATHRLLLLGAGESGKSTIVKQMRILHVNGFNGEGGEEDVPDYASNSDGEKATKVQDIKNNLKEAIETIVAAMSNLVPPVELANPENQFRVDYILSVMNVPNFDFPPEFYEHAKALWEDEGVRACYERSNEYQLIDCAQYFLDKIDVIKQADYVPSDQDLLRCRVLTSGIFETKFQVDKVNFHMFDVGGQRDERRKWIQCFNDVTAIIFVVASSSYNMVIREDNQTNRLQEALNLFKSIWNNRWLRTISVILFLNKQDLLAEKVLAGKSKIEDYFPEFARYTTPEDATPEPGEDPRVTRAKYFIRDEFLRISTASGDGRHYCYPHFTCAVDTENIRRVFNDCRDIIIKENLKDCGLF
modifications: Chimeric protein
notes: Gαs-based chimeric G protein, final 13 C-terminal amino acids substituted with those of Gαt
Consider B1, for which the “increase in SEAP activity” value is recorded as “about two”.
